{
  "source": "paper PMC10581170",
  "data": [
    {"biological_target": "T1, CzcR (His6-CzcR) (Pseudomonas aeruginosa PAO1?) (UniProt Q9RLJ1)", "T1 sequence": "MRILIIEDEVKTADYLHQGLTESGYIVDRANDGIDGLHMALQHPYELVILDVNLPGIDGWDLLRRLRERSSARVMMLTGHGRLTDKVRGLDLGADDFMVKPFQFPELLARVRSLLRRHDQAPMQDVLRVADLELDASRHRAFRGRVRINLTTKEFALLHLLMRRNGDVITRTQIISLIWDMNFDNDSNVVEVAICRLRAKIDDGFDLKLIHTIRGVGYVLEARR", "assay": "EMSA", "values": [
      {"sequence": "GCAACCGTTCGGAACATTCTTCCCGTCGGGGGTAGGCGAGCGACTTGCCCTGTGGAATAATACTGTCTACTTATACAGTTGTTCGTGGCCGTCCGGCCGCCCTGACTTCGCGAGGACTTCAATGGA (double strand) [recA promoter fragment (PrecA)]", "binding": "no binding"},
      {"sequence": "GAATCCACCTGAAACCCACGCCCAGCAAGGCCTATAGCACTAATCACAGACGCCCTTGACCTCAACTTAACTTGAGGTTTTATAGTCCCCGCTGCGGTCATACCGCCCCGTTTCCCCAGGACCACGAACCGCCCCCACGGCCGCTTCGCGGCGCCGGATGGCGACCAGCACAAGGAACGACCCATGCAGCGCTTC (double strand) [mexGHI-opmD promoter probe (PmexG)]", "binding": "binds"},
      {"sequence": "GATAACCGGCCATCGAGCTAAAACGTTTCAGGTGTTTTCACGCGAGGCTTTCGGACGTTTACAAACACCTATGAATGTAAGTATTTTGCCTGCCTTCTTCGAGCCGGTGCAGCGCCTTCACGCTGCATCGGCCGCTTTCGCTCATGAGGACAACGCTATGCAACGAAC (double strand) [mexAB-oprM promoter probe (PmexA)]", "binding": "binds"}
    ]}
  ]
}
